This note sets out measurements from patent US20240101645A1 (HENRY M JACKSON FOUNDATION FOR THE ADVANCEMENT OF MILITARY …, published 2024).

For assay [1], the target named is SARS-CoV-1 spike antigens (bead panel) (SARS-CoV-1, UniProt P59594 14-1195). As to the kind of experiment: multiplex bead assay.
Assay [2] addresses T1, HCoV-NL63 spike antigens (bead panel) (HCoV-NL63, UniProt Q6Q1S2 19-1296).
T1 sequence: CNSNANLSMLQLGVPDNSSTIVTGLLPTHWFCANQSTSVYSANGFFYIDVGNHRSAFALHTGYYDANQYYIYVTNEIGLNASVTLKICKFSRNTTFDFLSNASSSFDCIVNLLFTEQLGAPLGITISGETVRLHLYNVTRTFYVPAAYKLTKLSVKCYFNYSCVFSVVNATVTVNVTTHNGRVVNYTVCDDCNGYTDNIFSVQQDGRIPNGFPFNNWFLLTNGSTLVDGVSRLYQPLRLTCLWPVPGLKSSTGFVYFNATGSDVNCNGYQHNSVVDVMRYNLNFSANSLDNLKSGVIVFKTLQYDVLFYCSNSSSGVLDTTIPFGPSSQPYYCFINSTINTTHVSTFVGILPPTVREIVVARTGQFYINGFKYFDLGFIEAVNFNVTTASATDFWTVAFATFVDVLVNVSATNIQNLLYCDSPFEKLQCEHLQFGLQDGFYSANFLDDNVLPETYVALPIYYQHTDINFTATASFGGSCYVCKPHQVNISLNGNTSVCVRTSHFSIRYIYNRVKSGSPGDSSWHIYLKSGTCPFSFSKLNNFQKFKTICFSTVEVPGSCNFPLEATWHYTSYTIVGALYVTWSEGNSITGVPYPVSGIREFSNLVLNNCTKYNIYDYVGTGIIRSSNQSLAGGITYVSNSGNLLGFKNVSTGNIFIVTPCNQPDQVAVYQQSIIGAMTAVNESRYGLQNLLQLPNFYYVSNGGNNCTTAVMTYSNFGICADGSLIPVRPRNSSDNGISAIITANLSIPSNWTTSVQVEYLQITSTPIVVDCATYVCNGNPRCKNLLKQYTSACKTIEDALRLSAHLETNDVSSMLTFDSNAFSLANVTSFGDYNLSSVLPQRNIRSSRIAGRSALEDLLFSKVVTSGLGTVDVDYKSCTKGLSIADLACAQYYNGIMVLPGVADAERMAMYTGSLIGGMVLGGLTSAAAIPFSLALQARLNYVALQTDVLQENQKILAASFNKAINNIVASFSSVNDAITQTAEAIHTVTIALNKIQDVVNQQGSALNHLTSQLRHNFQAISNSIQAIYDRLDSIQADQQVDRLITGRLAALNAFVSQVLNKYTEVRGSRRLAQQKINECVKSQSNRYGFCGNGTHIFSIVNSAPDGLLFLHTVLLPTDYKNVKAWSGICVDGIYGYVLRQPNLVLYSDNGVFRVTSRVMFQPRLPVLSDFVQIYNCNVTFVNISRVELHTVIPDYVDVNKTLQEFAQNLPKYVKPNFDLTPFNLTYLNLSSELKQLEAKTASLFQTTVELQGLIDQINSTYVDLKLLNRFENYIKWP
The assay can be described thus: multiplex bead assay.

The target in assay [3] is T2, HCoV-OC43 spike antigens (bead panel) (HCoV-OC43, UniProt P36334 14-1297).
T2 sequence: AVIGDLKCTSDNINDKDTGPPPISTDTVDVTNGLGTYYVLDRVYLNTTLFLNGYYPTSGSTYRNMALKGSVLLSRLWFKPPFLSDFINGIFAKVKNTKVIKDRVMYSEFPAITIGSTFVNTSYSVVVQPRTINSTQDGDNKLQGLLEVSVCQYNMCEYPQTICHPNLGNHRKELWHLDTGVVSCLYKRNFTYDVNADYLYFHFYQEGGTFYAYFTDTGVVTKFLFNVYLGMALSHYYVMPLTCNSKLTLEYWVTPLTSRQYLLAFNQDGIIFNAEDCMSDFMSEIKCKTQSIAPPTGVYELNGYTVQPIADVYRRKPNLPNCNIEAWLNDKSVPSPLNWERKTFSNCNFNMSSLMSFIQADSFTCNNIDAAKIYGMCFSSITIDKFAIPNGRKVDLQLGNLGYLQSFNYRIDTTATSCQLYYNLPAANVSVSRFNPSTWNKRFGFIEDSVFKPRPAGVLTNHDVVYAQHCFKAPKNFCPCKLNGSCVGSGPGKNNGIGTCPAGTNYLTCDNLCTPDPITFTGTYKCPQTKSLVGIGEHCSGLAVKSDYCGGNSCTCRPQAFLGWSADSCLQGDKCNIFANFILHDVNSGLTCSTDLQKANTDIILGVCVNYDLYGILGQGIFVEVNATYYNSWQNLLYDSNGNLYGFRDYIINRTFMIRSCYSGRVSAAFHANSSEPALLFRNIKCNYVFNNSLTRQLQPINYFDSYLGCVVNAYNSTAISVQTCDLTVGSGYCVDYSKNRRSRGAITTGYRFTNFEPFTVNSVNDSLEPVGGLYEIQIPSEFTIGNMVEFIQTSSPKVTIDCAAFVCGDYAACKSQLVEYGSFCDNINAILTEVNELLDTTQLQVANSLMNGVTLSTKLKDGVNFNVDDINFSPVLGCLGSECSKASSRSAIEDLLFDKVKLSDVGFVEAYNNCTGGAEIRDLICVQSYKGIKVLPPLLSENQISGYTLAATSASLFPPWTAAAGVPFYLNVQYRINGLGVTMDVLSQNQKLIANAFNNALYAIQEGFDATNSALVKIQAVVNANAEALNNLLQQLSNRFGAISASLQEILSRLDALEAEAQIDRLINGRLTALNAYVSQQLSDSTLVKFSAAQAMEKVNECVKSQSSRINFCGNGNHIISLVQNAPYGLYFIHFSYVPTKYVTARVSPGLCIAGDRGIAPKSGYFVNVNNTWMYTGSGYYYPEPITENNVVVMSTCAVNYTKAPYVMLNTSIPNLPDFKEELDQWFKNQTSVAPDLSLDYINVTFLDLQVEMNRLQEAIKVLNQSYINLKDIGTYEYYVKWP
The assay can be described thus: multiplex bead assay.

Assay [4] deals with SARS-CoV-2 S on pseudovirions (Wuhan Hu-1 / IL1/2020, last 18 amino acids removed) (SARS-CoV-2, UniProt P0DTC2 14-1273). The assay can be described thus: cell-based or functional assay.

B1: COV_1118 (antibody, V domains shown)
VH: EVQLVESGGGLVKPGGSLRLSCAASGFSFSNYNMNWVRQAPGKGLEWVSYISSSSSYIYYADSVKGRFTISRDNAKNSLYLQMNSLRGEDTAVYSCAREASGAYYFDRSGYFDYWGQGTLVTVSP
VL: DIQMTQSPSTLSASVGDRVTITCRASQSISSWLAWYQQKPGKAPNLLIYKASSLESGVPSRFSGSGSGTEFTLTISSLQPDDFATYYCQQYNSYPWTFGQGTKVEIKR
notes: human IgG1
In the case of B1, the binding result in assay [1], in assay [2] and in assay [3] was “no binding” each time.

B2: COV_1154 (antibody, V domains shown)
VH: EVQLVESGGGLVKPGGSLRLSCAASGFRFSDYNMNWVRQAPGKGLEWVSYISSSSSYIYYADSVKGRFTISRDNAKNSLYLQMNSLRGEDTAVYSCAREASGAYYFDRSGYFDYWGQGTLVTVSP
VL: DIQMTQSPSTLSASVGDRVTITCRASQSISSWLAWYQQKPGKAPNLLIYKASSLESGVPSRFSGSGSGTEFTLTISSLQPYDFATYYCQQYNSYPWAFGQGTKVEMKR
notes: human IgG1
Take B2: the binding result in assay [1], in assay [2] and in assay [3] was “no binding” each time.

B3: COV_1136 (antibody, V domains shown)
VH: EVQLVESGGGLVKPGGSLRLSCAASGFTFSDCNMNWVRQAPGKGLEWVSSISSRSSYIYYADSVKGRFTISRDNAKNSLYLQMNSLRAEDTAVYSCAREASGAYYFDRSGYFDYWGQGTLVTVSP
VL: DIQMTQSPSTLSASVGDRVTITCRASQSISSWLAWYQQKPGKAPNLLIYKASSLESGVPSRFSGSGSGTEFTLTISSLQPDDFATYYCQQYNTYPWTFGQGTKVEIKR
notes: human IgG1
As to B3, the binding result in assay [1], in assay [2] and in assay [3] was “no binding” throughout.

B4: COV_3053 (antibody, V domains shown)
VH: EVQLVESGGGLVQPGRSLRLSCTASGFTLGDYAMTWVRQAPGKGLEWLGIIRNKRYGETKQYAASVKGRFTFSRDDSKGIGYLQRLSLKIEDTGVYYCTREHIVRDDAFDVWGQGTTVTVSS
VL: DIVMTQSPDSLAVSLGERATINCKSSQSVLYSSNNKNYIAWYQQRPGQPPKLLIYWTSTRASGVPDRFSGSGSGTDFALTISSLQAEDVAVYYCQQYYTIPRTFGQGTKVEIK
notes: human IgG1
B4: the binding result in assay [1], in assay [2] and in assay [3] was “no binding” throughout.

B5: COV_2123 (antibody, V domains shown)
VH: EVQLVESGGGVVQPGRSLRLSCAASGFTFSSYAMHWVRQAPGKGLEWVAVLSYDGSNKYNADSVKGRFTISRDNSKNTLYLQMNSLRVEDTAMYYCARDGVSVTMVRGVIGPLCDYWGQGTLVTVSS
VL: not shown
notes: human IgG1
Consider B5, for which the binding result in assay [2] and in assay [3] was “no binding” each time. Besides, in assay [4], the “Mean IC80, pSV neutralization” value is 0.03 µg/ml.

B6: COV_2193 (antibody, V domains shown)
VH: QVQLVQSGAEVKKPGASVKVSCKVSGYTLTDLSMHWVRQTPGKGLEWMGGFDAEDGETIYAQNFQGRVTMTEDTSIDVAYMELSSLRSEDTAVYYCATGSVGPDYWGQGTLVTVSS
VL: SSELTQDPAVSVALGQTVRITCQGDSLRSYYASWFQQKPGQAPVLVIYLKNDRPSGIPDRFSGSSSGNTASLTITGAQAEDEADYYCNSRDSSGNHQVFGGGTKLTVL
notes: human IgG1
Take B6: the binding result in assay [2] and in assay [3] was “no binding” throughout. Also, the “Mean IC50, pSV neutralization” value in assay [4] is at least 25 µg/ml. Also, the “Mean IC80, pSV neutralization” value in assay [4] is at least 25 µg/ml.

B7: COV_2137 (antibody, V domains shown)
VH: EVQLVESGGGLVKPGGSLRLSCAASGFTFSSYTMNWVRQAPGKGLEWVSSISSGSSFIYYADSLRGRFTISRDNAKNSLYLQMNSLRAEDTAVYYCARAPEPQSVIYAYWYFDLWGRGTLVTVSS
VL: QSALTQPASVSGSPGQSITFSCTGTSSDVGSYNLVSWYQQYPGKAPKLMIYEVNKRPSGVSNRFSGSKSGNTASLTISGLQAEDEADYYCCSYAGSSTFYVFGTGTKVTVLG
notes: human IgG1
With B7, the binding result in assay [1], in assay [2] and in assay [3] was “no binding” throughout.

B8: COV_2134 (antibody, V domains shown)
VH: EVQLVESGGGVVQPGRSLRLSCAASGFIFSSYGMYWVRQAPGKGLEWVAVIWYDGSNKYYADSVKGRFTISRDNSKNTLYLQMNSLRAEDTAVYYCARDLSSSSGWDDYYYYYGMDVWGQGTTVTVSS
VL: not shown
notes: human IgG1
Regarding B8, the binding result in assay [2] was “no binding”. For the same molecule, the binding result in assay [3] was “no binding”. In assay [4], the “Mean IC50, pSV neutralization” value is 16.1 µg/ml and the “Mean IC80, pSV neutralization” value was at least 25 µg/ml.

B9: COV_2004 (antibody, V domains shown)
VH: QVQLVQSGAEVKKPGASVKVSCKASGYTFTGYYMHWVRQAPGQGLEWMGRINPSSGGTNYAQKFQGRVTMTRDTSISTAYMELSSLRSDDTAVYYCATDGDDGENWFDPWGQGTLVIVSS
VL: DIQMTQSPSSLSASVGDRVTITCRASQGISSWLAWYQQKPEKAPKSLIYAASSLQSGVPSRFSGSGSGTDFTLTISSLQPEDFATYYCQQYNSYPYTFGQGTKLEIK
notes: human IgG1
As for B9, in assay [1], the binding result is recorded as “no binding”. The binding result in assay [2] is “no binding”. In addition, in assay [4], the “Mean IC50, pSV neutralization” value was determined as 0.04 µg/ml and the “Mean IC80, pSV neutralization” value turned out to be 3.64 µg/ml.

B10: COV_2100 (antibody, V domains shown)
VH: EVQLVESGGGLVQPGGSLRLSCAASGFTFSSYDMYWVRQATGKGLEWVSAIGTAGDTYYPGSVKGRFTISRENAKNSLYLRMNSLRAGDTAVYFCARADKNTAMFFDYWGQGTLVTVSS
VL: DIQMTQSPSSLSASVGDRVTITCRASQNINNFLHWYQQKPGNAPKLLIYAASTLQSGVPSRFSGSGSGTDFTLTISSLQPEDFATYYCQQSYSTPGGTFGGGTKVEIK
notes: human IgG1
Regarding B10, the binding result in assay [2] was “no binding”. Further, in assay [3], the binding result is “no binding”. Moreover, in assay [4], the “Mean IC50, pSV neutralization” value was determined as 23 µg/ml and the “Mean IC80, pSV neutralization” value is at least 25 µg/ml.
